Consider 3 substances from patent US12291504B2, “Small molecule inhibition of sulfotransferase SULT1A3” (University of Pittsburgh—Of the Commonwealth System of …, priority 2018, dated 2025).

The subject of this series is Oc1ccc2ccc3cccc4ccc1c2c34. Kind of series: purified protein, by the assay type. The note with it: saturating PAPS (500 μM), 25.0 °C.

Description: Covalent Tagging of SULT1A3 Cys Constructs. Labeling of the SULT1A3 Cys constructs was performed as described previously (17,18,21). Briefly, 3-maleimido-PROXYL (spin label) or N-cyclohexylmaleimide (diamagnetic control) was added to an enzyme containing solution at 20-fold excess over reactive Cys. Unreacted Cys was monitored using DNTB (17,18,21); reactions were considered complete when >98% of the Cys was labeled. Reaction conditions: SULT1A3 (50 μM, monomer), 3-maleimido-PROXYL or N-cyclohexylmaleimide (1.0 mM), PAP (0.50 mM), KPO4 (50 mM), pH 7.5, 4±2° C. To prepare samples for NMR, reaction mixtures were dialyzed three times against 40 volumes of PAP (0.50 mM), KPO4 (50 mM), pD 7.4, D2O (>95%), 4±2° C.
Initial-Rate Studies. Initial-rate parameters for the labeled or mutant SULT1A3 constructs were determined using a previously described 1-HP assay (25). […] Reactions were monitored via fluorescence change associated with the conversion of 1-HP to 1-HP-S (λex=325 nm, λem=370 nm). Keq for the 1-HP sulfonation reaction is −250. Given the reaction conditions outlined above, ≥99% of 1-HP is converted to 1-HP-S, and ˜0.4% of PAPS is converted to PAP at equilibrium. […] Reaction progress curves were analyzed to obtain initial-rate parameters as described previously (26,27).
Inhibition studies. Inhibition parameters were determined under conditions identical to those described above (see, Initial-Rate Studies) except that [1-HP] was increased to 5.0 μM (˜61×Km) and inhibitor concentration was varied between 0.20-20×Ki. Ki was obtained using a least-squares fit to the following partial inhibition equation (25,28): v=kcat·(Ki+(1/kcat inh)·[I])/(Ki+[I]), where kcat inh is enzyme turnover at saturating substrates and allosteric inhibitor.

With “SULT1A3 spin-labeled at Cys 198 (Homo sapiens; E198C)”, where the note is “other: spin label at Cys 198”, the Km is on record as 88 (2) nM and the kcat came out at 1.8 s⁻¹.
Turning to “SULT1A3 spin-labeled at Cys 234 (Homo sapiens; K234C)”, under “other: spin label at Cys 234”, the Km is listed as 84 (3) nM and the kcat is 1.82 s⁻¹.
Turning to “SULT1A3 spin-labeled at Cys 116 (Homo sapiens; Q116C)”, under “other: spin label at Cys 116”, the Km is reported as 87 (3) nM and the catalytic constant (kcat) is 1.83 s⁻¹.
